Our source for the abundance fitness values is the Human Domainome abundance scans (Beltran et al. 2025).

± gives the uncertainty stated by the source.

The chains are these.
B1: SWI/SNF complex subunit SMARCC1, residues 620 to 663; numbered along this chain, Q92922 (parent)
chain: GREWTEQETLLLLEALEMYKDDWNKVSEHVGSRTQDECILHFLR

In this data set the parent is B1. Briefly: abundance fitness (aPCA) (normalised: wild type 0, dead -1); higher = more abundant; growth selection in yeast, the domain comes from the species named. To be noted: Homo sapiens.
In the case of GREWTEQETLLLLEALEMYKDDWNLVSEHVGSRTQDECILHFLR [K25L], the abundance fitness worked out at 0.072 ± 0.056. Regarding GREWTEQETLLLLEALEMYKDDWNHVSEHVGSRTQDECILHFLR [K25H], the abundance fitness was -0.045 ± 0.096. On to GREWTEQETLLLLEALEMYKDDWNKVMEHVGSRTQDECILHFLR [S27M], for which the abundance fitness was -0.248 ± 0.11. GREWTEQETLLLLEALEMYKDDWNKVYEHVGSRTQDECILHFLR [S27Y]: the abundance fitness is -0.305 ± 0.13. In the case of GREWTEQETLLLLEALEMYKDDWNKVSEHVASRTQDECILHFLR [G31A], the abundance fitness is -0.03 ± 0.073. Take GREWTEQETLLLLEALEMYKDDWNKVSEHVVSRTQDECILHFLR [G31V]: the abundance fitness is -0.028 ± 0.054. Consider GREWTEQETLLLLEALEMYKDDWNKASEHVGSRTQDECILHFLR [V26A], for which the abundance fitness stood at 0.006 ± 0.083. As for GREWTEQETLLLLEALEMYKDDWNKHSEHVGSRTQDECILHFLR [V26H], the abundance fitness is -0.683 ± 0.2.

Regarding GREWTEQETLLLLEALENYKDDWNKVSEHVGSRTQDECILHFLR [M18N], the abundance fitness is -0.018 ± 0.25.

As to GREWTEQETLLLLEALEMYKDDTNKVSEHVGSRTQDECILHFLR [W23T], the abundance fitness was -0.786 ± 0.12. Take AREWTEQETLLLLEALEMYKDDWNKVSEHVGSRTQDECILHFLR [G1A]: the abundance fitness came out at 0.081 ± 0.2. As to YREWTEQETLLLLEALEMYKDDWNKVSEHVGSRTQDECILHFLR [G1Y], the abundance fitness worked out at 0.191 ± 0.12. As to GREWTEQETLLLLEALEMYKDDWNKVSEHVGSRTQDECIEHFLR [L40E], the abundance fitness turned out to be 0.122 ± 0.1. For the variant GREWDEQETLLLLEALEMYKDDWNKVSEHVGSRTQDECILHFLR [T5D], the abundance fitness is -0.069 ± 0.13. GREWMEQETLLLLEALEMYKDDWNKVSEHVGSRTQDECILHFLR [T5M]: the abundance fitness was 0.11 ± 0.07. Turning to GREWNEQETLLLLEALEMYKDDWNKVSEHVGSRTQDECILHFLR [T5N], the abundance fitness is -0.086 ± 0.12. As for GREWIEQETLLLLEALEMYKDDWNKVSEHVGSRTQDECILHFLR [T5I], the abundance fitness is -0.201 ± 0.11. Turning to GKEWTEQETLLLLEALEMYKDDWNKVSEHVGSRTQDECILHFLR [R2K], the abundance fitness is 0.244 ± 0.067. The result for GNEWTEQETLLLLEALEMYKDDWNKVSEHVGSRTQDECILHFLR [R2N] reads 0.288 ± 0.068; that for GWEWTEQETLLLLEALEMYKDDWNKVSEHVGSRTQDECILHFLR [R2W], -0.023 ± 0.13; that for GREWTEQETLLLLEALEMYKDDWNKVSEHVGSRTQDECLLHFLR [I39L], 0.142 ± 0.051.

For the variant GREWTEQETLLLLEALEMYKDDWNKVSEHVGSRTQDECQLHFLR [I39Q], the abundance fitness is 0.238 ± 0.062. On to GREWTEQETLLLLEALEMYKDDWNKVSEHVGSRTQDECNLHFLR [I39N], for which the abundance fitness was 0.35 ± 0.076. The result for GREWTEQETLLLLEALEMYKDDWNKVSEHVGSRTQDECHLHFLR [I39H] reads 0.456 ± 0.053. In the case of GREWTEQETLLLLEALEMYKDDWNKVSEHVGSTTQDECILHFLR [R33T], the abundance fitness is -0.464 ± 0.13.

On to GREWTEQETLLLLEALEMYKDDWNKVSEHVGSRTTDECILHFLR [Q35T], for which the abundance fitness is 0.044 ± 0.073. The result for GREITEQETLLLLEALEMYKDDWNKVSEHVGSRTQDECILHFLR [W4I] reads 0.253 ± 0.18; that for GREWTELETLLLLEALEMYKDDWNKVSEHVGSRTQDECILHFLR [Q7L], -0.578 ± 0.46. GREWTEPETLLLLEALEMYKDDWNKVSEHVGSRTQDECILHFLR [Q7P]: the abundance fitness is -0.381 ± 0.34.

In the case of GREWTEIETLLLLEALEMYKDDWNKVSEHVGSRTQDECILHFLR [Q7I], the abundance fitness stood at 0.341 ± 0.15. On to GREWTEQETLLLLEALEMYKDDWNKVSEHVGSRTQDECILHGLR [F42G], for which the abundance fitness is 0.307 ± 0.073.

Regarding GREWTEQETLLLLEALEMYKDDWNKVSEHVGSRTQDECILHELR [F42E], the abundance fitness is 0.767 ± 0.18. The result for GREWTEQETLLLLEALEMYKDDWNKVSEHVGSRTQDECILHALR [F42A] reads 0.053 ± 0.088; that for GREWTEQETLLLLEALVMYKDDWNKVSEHVGSRTQDECILHFLR [E17V], -0.503 ± 0.1. For the variant GREWTEQETLLLSEALEMYKDDWNKVSEHVGSRTQDECILHFLR [L13S], the abundance fitness is -0.259 ± 0.31.

For GREWTEQETLLLLEALEMYKDDWNKVSEHVGSRTQDEPILHFLR [C38P], the abundance fitness is -0.73 ± 0.12. In the case of GREWTEQETLLLLEALEMYKDDWNKVSEHVGSRTQDEMILHFLR [C38M], the abundance fitness was -1.09 ± 0.34.

Take GRLWTEQETLLLLEALEMYKDDWNKVSEHVGSRTQDECILHFLR [E3L]: the abundance fitness was -0.03 ± 0.12. Regarding GRDWTEQETLLLLEALEMYKDDWNKVSEHVGSRTQDECILHFLR [E3D], the abundance fitness was 0.311 ± 0.12. The result for GRVWTEQETLLLLEALEMYKDDWNKVSEHVGSRTQDECILHFLR [E3V] reads 0.312 ± 0.096; that for GREWTEQETLLLLEALEMYKDDWNKVSEHVGSRTQDECILWFLR [H41W], -0.142 ± 0.11; that for GREWTEQETLLLLEALEMYKDDWNKVSEHVGSRTQDECILTFLR [H41T], -0.161 ± 0.059. In the case of GREWTEQETLLLLEALEMYKDDWNKVSEHVGSRTQDECILIFLR [H41I], the abundance fitness is -0.537 ± 0.15. As to GREWTEQETLLLLEALEMYKDDWNKVSEHVGSRYQDECILHFLR [T34Y], the abundance fitness was -0.715 ± 0.3. On to GREWTEQETLLLLEALEMYKDDWNKVSEHVGSRPQDECILHFLR [T34P], for which the abundance fitness was -0.222 ± 0.25. In the case of GREWTEQETLLLLEALEMYKDDWNKVSEHVGSRGQDECILHFLR [T34G], the abundance fitness came to 0.03 ± 0.12.

As for GREWTEQETLLLLEALEMYKDDWNKVSEHVGSRDQDECILHFLR [T34D], the abundance fitness was -0.036 ± 0.23. As to GREWTEQEGLLLLEALEMYKDDWNKVSEHVGSRTQDECILHFLR [T9G], the abundance fitness is -0.098 ± 0.079.

As to GREWTEQEWLLLLEALEMYKDDWNKVSEHVGSRTQDECILHFLR [T9W], the abundance fitness was -0.595 ± 0.3. As to GREWTPQETLLLLEALEMYKDDWNKVSEHVGSRTQDECILHFLR [E6P], the abundance fitness is -0.264 ± 0.069.

As to GREWTEQETLLLLEALEMYKDDWNKVSEHVGCRTQDECILHFLR [S32C], the abundance fitness is -0.124 ± 0.082. GREWTEQETLLDLEALEMYKDDWNKVSEHVGSRTQDECILHFLR [L12D]: the abundance fitness was -0.259 ± 0.17. For GREWTEQETLLYLEALEMYKDDWNKVSEHVGSRTQDECILHFLR [L12Y], the abundance fitness was -0.103 ± 0.095. For the variant GREWTEQETLLMLEALEMYKDDWNKVSEHVGSRTQDECILHFLR [L12M], the abundance fitness was -0.32 ± 0.14. In the case of GREWTEQETLLRLEALEMYKDDWNKVSEHVGSRTQDECILHFLR [L12R], the abundance fitness is -0.718 ± 0.17. As for GREWTEQETLLLLEALEMWKDDWNKVSEHVGSRTQDECILHFLR [Y19W], the abundance fitness was -0.081 ± 0.075. As for GREWTEQETLLLLHALEMYKDDWNKVSEHVGSRTQDECILHFLR [E14H], the abundance fitness was -0.311 ± 0.1. The result for GREWTEQETLLLLAALEMYKDDWNKVSEHVGSRTQDECILHFLR [E14A] reads 0.007 ± 0.072. GREWTEQETLLLLEALEMYKDDWNKVSIHVGSRTQDECILHFLR [E28I]: the abundance fitness is -0.16 ± 0.19.
